B1: HDV Ribozyme (parent)
chain: GGCCGGCAUGGUCCCAGCCUCCUCGCUGGCGCCGGCUGGGCAACAUUCCGAGGGGACCGUCCCCUCGGUAAUGGCGAAUGGGACCCA

Variants of: B1
Experiment: self-cleavage, relative activity (ratio to wild type); higher = more cleavage; co-transcriptional

| Variant | self-cleavage |
| --- | --- |
| GGCCGGCAUGGUCCCAGCCUCCUCGCUGUCGCCGGCUGGGCAACAUUCCGAGGGGACCGUCCCCUCGGUAAUGGCGAAUGGGACACA [G29U C85A] | 0.0941 |
| GGCCGGCAUGGUCCCAGCCUCCUCGCUGGAGUCGGCUGGGCAACAUUCCGAGGGGACCGUCCCCUCGGUAAUGGCGAAUGGGACCCA [C30A C32U] | 0.171 |
| GGCCGGCAUGGUCCCAGCCUCCUCGCUGGAGCCGGCUGGGCAACAUUCCGAGGGGACCGUCACCUCGGUAAUGGCGAAUGGGACCCA [C30A C62A] | 0.578 |
| GGCCGGCAUGGUCCCAGCCUCCUCGCUGUCGCCGGCUGGGCAACAUUCCGAGAGGACCGUCCCCUCGGUAAUGGCGAAUGGGACCCA [G29U G53A] | 0.0432 |
| GGCCGGCAUGGUCCCAGCCUCCUCGCUGUCGCCGGCUGGGCAACAUUCCGAGGGGUCCGUCCCCUCGGUAAUGGCGAAUGGGACCCA [G29U A56U] | 0.109 |
| GGCCGGCAUGGUCCCAGCCUCCUCGCUGGAGCCGGCUGGGCAACAUUCCGAGGGGACCGUCCCAUCGGUAAUGGCGAAUGGGACCCA [C30A C64A] | 0.536 |
| GGCCGGCAUGGUCCCAGCCUCCUCGCUGGAGCCGGCUGGGCAACAUUCCGAGGGGACCGUCCCUUCGGUAAUGGCGAAUGGGACCCA [C30A C64U] | 0.554 |
| GGCCGGCAUGGUCCCAGCCUCCUCGCUGGAGCCGGCUGGGCAACAUUCCGAGGGGACCGUCCCCUCCGUAAUGGCGAAUGGGACCCA [C30A G67C] | 0.318 |
| GGCCGGCAUGGUCCCAGCCUCCUCGCUGUCGCCGGCGGGGCAACAUUCCGAGGGGACCGUCCCCUCGGUAAUGGCGAAUGGGACCCA [G29U U37G] | 0.0723 |
| GGCCGGCAUGGUCCCAGCCUCCUCGCUGCCGCCGGCUGGGCAACAAUCCGAGGGGACCGUCCCCUCGGUAAUGGCGAAUGGGACCCA [G29C U46A] | 0.178 |
| GGCCGGCAUGGUCCCAGCCUCCUCGCUGGAGCCGGCUGGGGAACAUUCCGAGGGGACCGUCCCCUCGGUAAUGGCGAAUGGGACCCA [C30A C41G] | 0.0875 |
| GGCCGGCAUGGUCCCAGCCUCCUCGCUGUCGCCGGCUGGGCAACAUUCCGAGGGGACCGUCCCCUCGGUAAUGGCGAAUGGGUCCCA [G29U A83U] | 0.102 |
| GGCCGGCAUGGUCCCAGCCUCCUCGCUGUCGCCGGCUGGGCAACAUUCCGAGGGGACCAUCCCCUCGGUAAUGGCGAAUGGGACCCA [G29U G59A] | 0.102 |
| GGCCGGCAUGGUCCCAGCCUCCUCGCUGGAGCCGGCUAGGCAACAUUCCGAGGGGACCGUCCCCUCGGUAAUGGCGAAUGGGACCCA [C30A G38A] | 0.219 |
| GGCCGGCAUGGUCCCAGCCUCCUCGCUGGAGCCGGCUGGGCAACAUUCCGAGUGGACCGUCCCCUCGGUAAUGGCGAAUGGGACCCA [C30A G53U] | 0.443 |
| GGCCGGCAUGGUCCCAGCCUCCUCGCUGUCGCCGGCUCGGCAACAUUCCGAGGGGACCGUCCCCUCGGUAAUGGCGAAUGGGACCCA [G29U G38C] | 0.0386 |
| GGCCGGCAUGGUCCCAGCCUCCUCGCUGUCGCCGGCUAGGCAACAUUCCGAGGGGACCGUCCCCUCGGUAAUGGCGAAUGGGACCCA [G29U G38A] | 0.0656 |
| GGCCGGCAUGGUCCCAGCCUCCUCGCUGUCGCCGGCUGGGCAACAUUCCGAGGGGACCGACCCCUCGGUAAUGGCGAAUGGGACCCA [G29U U60A] | 0.248 |
| GGCCGGCAUGGUCCCAGCCUCCUCGCUGUCGCCGUCUGGGCAACAUUCCGAGGGGACCGUCCCCUCGGUAAUGGCGAAUGGGACCCA [G29U G35U] | 0.058 |
| GGCCGGCAUGGUCCCAGCCUCCUCGCUGUCGCCGACUGGGCAACAUUCCGAGGGGACCGUCCCCUCGGUAAUGGCGAAUGGGACCCA [G29U G35A] | 0.0744 |
| GGCCGGCAUGGUCCCAGCCUCCUCGCUGUCGCCGGCUGGGCAACAUUCCGAGGGGACCGUCCCCUCGGUAAUGGCGAAUGUGACCCA [G29U G81U] | 0.0554 |
| GGCCGGCAUGGUCCCAGCCUCCUCGCUGUCGCCGGCUGGGCAACAUUCCGAGGUGACCGUCCCCUCGGUAAUGGCGAAUGGGACCCA [G29U G54U] | 0.0449 |

| Variant | self-cleavage |
| --- | --- |
| GGCCGGCAUGGUCCCAGCCUCCUCGCUGUCGCCGGCUGGGCAACAUUCCGAGGGGACAGUCCCCUCGGUAAUGGCGAAUGGGACCCA [G29U C58A] | 0.204 |
| GGCCGGCAUGGUCCCAGCCUCCUCGCUGUCGCCGGCUGGGCAACAUUCCGAGGGGACCGUCCCCUCGGAAAUGGCGAAUGGGACCCA [G29U U69A] | 0.0875 |
| GGCCGGCAUGGUCCCAGCCUCCUCGCUGUCGCCGGCUGGGCACCAUUCCGAGGGGACCGUCCCCUCGGUAAUGGCGAAUGGGACCCA [G29U A43C] | 0.136 |
| GGCCGGCAUGGUCCCAGCCUCCUCGCUGUCGCCGGCUGGGCAUCAUUCCGAGGGGACCGUCCCCUCGGUAAUGGCGAAUGGGACCCA [G29U A43U] | 0.095 |
| GGCCGGCAUGGUCCCAGCCUCCUCGCUGGAGCCGGCUGGGCAACAUUCCGAGGGGACCGUCCCCUCGGUAAUGGCGAAUGCGACCCA [C30A G81C] | 0.201 |
| GGCCGGCAUGGUCCCAGCCUCCUCGCUGGAGCCGGCUGGGCAACAUUCCGAGGGGACCGUCCCCUCGGUUAUGGCGAAUGGGACCCA [C30A A70U] | 0.62 |
| GGCCGGCAUGGUCCCAGCCUCCUCGCUGGAGCCGGCUGGGCAACAUUCCAAGGGGACCGUCCCCUCGGUAAUGGCGAAUGGGACCCA [C30A G50A] | 0.641 |
| GGCCGGCAUGGUCCCAGCCUCCUCGCUGGAACCGGCUGGGCAACAUUCCGAGGGGACCGUCCCCUCGGUAAUGGCGAAUGGGACCCA [C30A G31A] | 0.0733 |
| GGCCGGCAUGGUCCCAGCCUCCUCGCUGGAGCCGACUGGGCAACAUUCCGAGGGGACCGUCCCCUCGGUAAUGGCGAAUGGGACCCA [C30A G35A] | 0.244 |
| GGCCGGCAUGGUCCCAGCCUCCUCGCUGGAGCCGGCUGGGCAACAUUCCGAGGGGACCGUCCCCUCGGUAAUGCCGAAUGGGACCCA [C30A G74C] | 0.158 |
| GGCCGGCAUGGUCCCAGCCUCCUCGCUGUCGCCGGCUGGGCAAUAUUCCGAGGGGACCGUCCCCUCGGUAAUGGCGAAUGGGACCCA [G29U C44U] | 0.104 |
| GGCCGGCAUGGUCCCAGCCUCCUCGCUGGAGCCGGCUGGGCAACAUUCCGAGGGGACCGUCCCCUCGGUAAUGGCGAAUGGGUCCCA [C30A A83U] | 0.0923 |
| GGCCGGCAUGGUCCCAGCCUCCUCGCUGUCGCCGGCUGGGCAACAAUCCGAGGGGACCGUCCCCUCGGUAAUGGCGAAUGGGACCCA [G29U U46A] | 0.0665 |
| GGCCGGCAUGGUCCCAGCCUCCUCGCUGUCGCCGGCUGGGCAACAGUCCGAGGGGACCGUCCCCUCGGUAAUGGCGAAUGGGACCCA [G29U U46G] | 0.0386 |
| GGCCGGCAUGGUCCCAGCCUCCUCGCUGGAGCCGGCUGGGCAACAUUCCGAGGGGACCGUCCCCUCGGUAAUGGCGACUGGGACCCA [C30A A78C] | 0.117 |
| GGCCGGCAUGGUCCCAGCCUCCUCGCUGGAGCCGGCUGGGCAACAUUCCGAGGGGACCGUCCCCUCGGUAAUGGCGAUUGGGACCCA [C30A A78U] | 0.237 |
| GGCCGGCAUGGUCCCAGCCUCCUCGCUGUCGCCGGCUGGGCAACAUUCCGCGGGGACCGUCCCCUCGGUAAUGGCGAAUGGGACCCA [G29U A51C] | 0.0898 |
| GGCCGGCAUGGUCCCAGCCUCCUCGCUGGAGCCGGCUGGGCAACAUUCCGAGGGAACCGUCCCCUCGGUAAUGGCGAAUGGGACCCA [C30A G55A] | 0.472 |
| GGCCGGCAUGGUCCCAGCCUCCUCGCUGUCGCCGGCUGGGCAACAUUUCGAGGGGACCGUCCCCUCGGUAAUGGCGAAUGGGACCCA [G29U C48U] | 0.0959 |
| GGCCGGCAUGGUCCCAGCCUCCUCGCUGGAGCCGGCUGGGCAUCAUUCCGAGGGGACCGUCCCCUCGGUAAUGGCGAAUGGGACCCA [C30A A43U] | 0.0692 |
| GGCCGGCAUGGUCCCAGCCUCCUCGCUGUCGCCGGCUGGGCAACAUUCCGAGGGGACCGUACCCUCGGUAAUGGCGAAUGGGACCCA [G29U C61A] | 0.089 |
| GGCCGGCAUGGUCCCAGCCUCCUCGCUGGAGCCGGCUGGGCAACCUUCCGAGGGGACCGUCCCCUCGGUAAUGGCGAAUGGGACCCA [C30A A45C] | 0.0678 |

| Variant | self-cleavage |
| --- | --- |
| GGCCGGCAUGGUCCCAGCCUCCUCGCUGUCGCCGGCUGGGCAACAUUCCGAAGGGACCGUCCCCUCGGUAAUGGCGAAUGGGACCCA [G29U G52A] | 0.168 |
| GGCCGGCAUGGUCCCAGCCUCCUCGCUGUUGCCGGCUGGGCAACAUUCCGAGGGGACCGUCCCCUCGGUAAUGGCGAAUGGGACCCA [G29U C30U] | 0.0779 |
| GGCCGGCAUGGUCCCAGCCUCCUCGCUGGAGCCGGCUGGGCAACAUUCCGAGGGGACCGUCCCCUCGGUAAUUGCGAAUGGGACCCA [C30A G73U] | 0.111 |
| GGCCGGCAUGGUCCCAGCCUCCUCGCUGGAGCCGGCUGGGCAACAUUCCGAGGGGACCGUCCCCUCGGUAAUGGCGGAUGGGACCCA [C30A A77G] | 0.224 |
| GGCCGGCAUGGUCCCAGCCUCCUCGCUGGAGCCGGCUGGGCAACAUUCCGAGGGGACCGUCCCCUCGGUAAUGGCGAAUGGGACCAA [C30A C86A] | 0.591 |
| GGCCGGCAUGGUCCCAGCCUCCUCGCUGCCGCCGGCUGGGCAACAUUCCGAGGGGACCGUCCCCUCGGAAAUGGCGAAUGGGACCCA [G29C U69A] | 0.162 |
| GGCCGGCAUGGUCCCAGCCUCCUCGCUGGAGCCGGCUGGGCAACAUUCCGAGGGGUCCGUCCCCUCGGUAAUGGCGAAUGGGACCCA [C30A A56U] | 0.727 |
| GGCCGGCAUGGUCCCAGCCUCCUCGCUGUCGCCGGCUGGGCAACAUUCCGAGGGGACCGUCCCCUCGGUAAUGGCGGAUGGGACCCA [G29U A77G] | 0.178 |
| GGCCGGCAUGGUCCCAGCCUCCUCGCUGGAGCCGGCUGGGCAACAUUCCGAGGGGACCGUCCCCUAGGUAAUGGCGAAUGGGACCCA [C30A C66A] | 0.582 |
| GGCCGGCAUGGUCCCAGCCUCCUCGCUGUCGCCGGCUGGGCAACAUCCCGAGGGGACCGUCCCCUCGGUAAUGGCGAAUGGGACCCA [G29U U47C] | 0.19 |
| GGCCGGCAUGGUCCCAGCCUCCUCGCUGUCGGCGGCUGGGCAACAUUCCGAGGGGACCGUCCCCUCGGUAAUGGCGAAUGGGACCCA [G29U C32G] | 0.0455 |
| GGCCGGCAUGGUCCCAGCCUCCUCGCUGGAGCCGGCUGGGCAACAUUGCGAGGGGACCGUCCCCUCGGUAAUGGCGAAUGGGACCCA [C30A C48G] | 0.467 |
| GGCCGGCAUGGUCCCAGCCUCCUCGCUGGAGCCUGCUGGGCAACAUUCCGAGGGGACCGUCCCCUCGGUAAUGGCGAAUGGGACCCA [C30A G34U] | 0.155 |
| GGCCGGCAUGGUCCCAGCCUCCUCGCUGGAGCCGGCUGGGCAACAUUCCGAUGGGACCGUCCCCUCGGUAAUGGCGAAUGGGACCCA [C30A G52U] | 0.532 |
| GGCCGGCAUGGUCCCAGCCUCCUCGCUGGAGCCGGCUGGGCAACAUUCCGAGGGGACCGUCCCCUCGGUAAUGGCGAAUUGGACCCA [C30A G80U] | 0.153 |
| GGCCGGCAUGGUCCCAGCCUCCUCGCUGGAGCCGGCUGGGCAACAUUCCGAGGGGACCGUCCACUCGGUAAUGGCGAAUGGGACCCA [C30A C63A] | 0.481 |
| GGCCGGCAUGGUCCCAGCCUCCUCGCUGUCGCCGGCUGGGCAACAUUCCGAGGGGACCGUCCCCUCGGUAAUGGCGAAAGGGACCCA [G29U U79A] | 0.0386 |
| GGCCGGCAUGGUCCCAGCCUCCUCGCUGGAGCCGGCUGGGCAACAUUCCGAGGGGACCCUCCCCUCGGUAAUGGCGAAUGGGACCCA [C30A G59C] | 0.58 |
| GGCCGGCAUGGUCCCAGCCUCCUCGCUGGAGCCGGUUGGGCAACAUUCCGAGGGGACCGUCCCCUCGGUAAUGGCGAAUGGGACCCA [C30A C36U] | 0.148 |
| GGCCGGCAUGGUCCCAGCCUCCUCGCUGUCGCCCGCUGGGCAACAUUCCGAGGGGACCGUCCCCUCGGUAAUGGCGAAUGGGACCCA [G29U G34C] | 0.146 |

Source: the RNAGym collection of RNA variant scans (doi:10.7554/elife.80360)
